Source: paper PMC9104438, “Application of a Fluorescence Anisotropy-Based Assay to Quantify Transglutaminase 2 Activity in Cell Lysates” (International Journal of Molecular Sciences, 2022)

Experiments:
hTGase 3 = target: T1, hTGase 3 (Homo sapiens, UniProt Q08188); assay: FA-based assay, kinetic characterization of acyl donor DMC with R-I-Cad; format: biochemical; set-up: purchased Zedira T013; details: hTGase 3 5 µg/mL, R-I-Cad 0.74 µM, mean (SEM)
T1 sequence (Q08188 2-467 limits assumed): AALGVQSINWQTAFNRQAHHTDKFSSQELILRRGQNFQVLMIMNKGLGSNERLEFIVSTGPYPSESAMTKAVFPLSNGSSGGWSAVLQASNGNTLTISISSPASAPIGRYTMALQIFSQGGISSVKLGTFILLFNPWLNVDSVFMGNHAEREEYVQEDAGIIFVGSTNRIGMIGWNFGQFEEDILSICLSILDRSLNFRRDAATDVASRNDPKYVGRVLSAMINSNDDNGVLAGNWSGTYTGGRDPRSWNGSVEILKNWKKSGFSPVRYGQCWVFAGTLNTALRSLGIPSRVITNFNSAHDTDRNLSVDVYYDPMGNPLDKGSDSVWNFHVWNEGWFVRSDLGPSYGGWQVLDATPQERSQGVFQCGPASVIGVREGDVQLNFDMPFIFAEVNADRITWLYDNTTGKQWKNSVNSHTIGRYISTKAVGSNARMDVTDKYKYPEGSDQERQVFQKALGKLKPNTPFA
T1 sequence (Q08188 468-693 partner limits assumed): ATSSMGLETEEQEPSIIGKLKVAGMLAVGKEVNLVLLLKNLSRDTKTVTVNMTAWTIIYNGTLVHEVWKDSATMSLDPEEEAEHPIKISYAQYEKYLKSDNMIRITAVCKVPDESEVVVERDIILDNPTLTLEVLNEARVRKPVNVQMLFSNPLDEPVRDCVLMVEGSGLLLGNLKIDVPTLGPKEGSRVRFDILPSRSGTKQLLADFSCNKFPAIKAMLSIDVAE
Procedure: (§1) For the kinetic characterization of DMC (Figure 1B) in the presence of a fixed concentration of R-I-Cad (0.74 µM), eight different concentrations of DMC (0.3–300 µM) were used (2–3 separate experiments, each performed in duplicate). The corresponding stock solutions of DMC and R-I-Cad were prepared in assay buffer A and DMSO, respectively. […] Values for Km, Ki and Vmax were calculated according to the equation of substrate inhibition (Equation (2)). (2) v=Vmax∗[S]/Km+[S]∗(1+[S]/Ki)

hTGase 1 = target: T2, hTGase 1 (Homo sapiens, UniProt P22735); assay: as above; format: biochemical; set-up: purchased Zedira T009; details: hTGase 1 2 µg/mL, R-I-Cad 0.74 µM, pH 8.0, 30 °C, mean (SEM)
T2 sequence (P22735 1-817): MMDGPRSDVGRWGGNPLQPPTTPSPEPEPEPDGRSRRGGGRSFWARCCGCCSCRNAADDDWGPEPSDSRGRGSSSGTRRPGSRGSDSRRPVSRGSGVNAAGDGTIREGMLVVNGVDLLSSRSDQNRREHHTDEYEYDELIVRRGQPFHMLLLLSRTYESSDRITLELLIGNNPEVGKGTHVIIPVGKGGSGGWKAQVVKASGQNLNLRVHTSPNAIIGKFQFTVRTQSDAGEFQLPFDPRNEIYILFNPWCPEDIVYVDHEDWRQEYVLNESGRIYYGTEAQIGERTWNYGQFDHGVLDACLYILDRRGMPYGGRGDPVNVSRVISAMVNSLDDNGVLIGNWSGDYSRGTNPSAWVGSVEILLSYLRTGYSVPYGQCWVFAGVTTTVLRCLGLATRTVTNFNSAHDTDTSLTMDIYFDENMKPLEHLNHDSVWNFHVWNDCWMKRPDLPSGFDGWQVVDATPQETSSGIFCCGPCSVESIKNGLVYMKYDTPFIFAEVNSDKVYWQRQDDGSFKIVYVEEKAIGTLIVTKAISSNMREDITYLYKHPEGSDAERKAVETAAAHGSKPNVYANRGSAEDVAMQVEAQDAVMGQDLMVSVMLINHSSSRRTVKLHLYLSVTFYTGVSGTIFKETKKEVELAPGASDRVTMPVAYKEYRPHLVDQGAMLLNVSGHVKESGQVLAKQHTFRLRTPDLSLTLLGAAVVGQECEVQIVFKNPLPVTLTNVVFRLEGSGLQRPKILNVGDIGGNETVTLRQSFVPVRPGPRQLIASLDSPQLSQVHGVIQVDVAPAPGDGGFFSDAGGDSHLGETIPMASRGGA
Procedure: as §1

TGase 2 in cell lysates = target: T3, TGase 2 in cell lysates (Homo sapiens, UniProt P21980); assay: FA-based assay of TGase 2 activity in cell lysates, control with inhibitor; format: biochemical, human and mouse; details: 10 µM inhibitor, preincubation 10 min; DMC 30 µM, R-I-Cad 0.81 µM; all studied cell lines
T3 construct: endogenous in cells; host or cells: lysates of 30 cell lines (27 human, 3 mouse), e.g. HUVEC, A375
T3 sequence (P21980 2-687 limits assumed): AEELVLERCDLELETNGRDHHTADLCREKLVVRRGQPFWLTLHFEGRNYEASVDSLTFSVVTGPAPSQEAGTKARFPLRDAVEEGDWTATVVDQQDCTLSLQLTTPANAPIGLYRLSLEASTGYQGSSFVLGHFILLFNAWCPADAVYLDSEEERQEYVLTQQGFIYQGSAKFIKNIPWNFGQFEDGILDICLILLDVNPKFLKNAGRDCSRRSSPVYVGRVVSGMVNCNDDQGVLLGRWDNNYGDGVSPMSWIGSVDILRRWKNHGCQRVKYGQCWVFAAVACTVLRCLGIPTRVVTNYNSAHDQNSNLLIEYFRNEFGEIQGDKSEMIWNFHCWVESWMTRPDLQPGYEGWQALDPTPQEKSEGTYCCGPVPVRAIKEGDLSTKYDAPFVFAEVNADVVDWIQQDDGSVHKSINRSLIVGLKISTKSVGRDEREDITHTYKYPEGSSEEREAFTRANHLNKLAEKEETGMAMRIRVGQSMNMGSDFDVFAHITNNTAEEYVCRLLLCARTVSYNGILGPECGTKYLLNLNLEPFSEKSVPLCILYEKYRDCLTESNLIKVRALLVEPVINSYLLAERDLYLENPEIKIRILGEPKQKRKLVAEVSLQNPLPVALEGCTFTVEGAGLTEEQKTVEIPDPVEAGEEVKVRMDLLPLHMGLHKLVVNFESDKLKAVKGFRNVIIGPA
Procedure: Lysis of cell pellets was performed as described recently. Accordingly, cell pellets were resuspended in 50 µL modified RIPA buffer A, incubated on ice for 30 min and applied to ultrasound (Bandelin Sonopuls, 2 × 15 s, 20% power at ambient temperature). Subsequently, cell lysates were incubated on ice for 10 min and were then spun for 15 min at 4 °C at 15,000× g. The supernatants were transferred into fresh tubes. The protein content was determined with a BCA protein assay (ThermoFisher, Waltham, MA, USA) according to the manufacturer’s protocol. Lysates were stored at −60 °C.

[1] = read-out: Ki (substrate inhibition)

Molecule | Km (hTGase 3) | Ki (hTGase 3; [1]) | Vmax (hTGase 3; pH 8.0, 30 °C) | Vmax (hTGase 1; DMC 0.3–300 µM, 5% DMSO, 500 µM DTT) | Km (hTGase 1) | Ki (hTGase 1; [1]) | FA increase over time in cell lysates in the presence of inhibitor (TGase 2 in cell lysates)
N,N-dimethylated casein [DMC] | 6.29 µM | 571 µM | 5.80 (0.09) mA mL s^−1 mg^−1 | 121 (13) mA mL s^−1 mg^−1 | 8.77 µM | 270 µM | –
C=CC(=O)NCCCC[C@H](NC(=O)Cc1ccccc1)C(=O)N1CCN(c2cccc(C)n2)CC1 [Compound 1] | – | – | – | – | – | – | below the detection limit
